System: CD14+ monocytes
Experiment: Sema 7a stimulation of CD14+ monocytes; CD206 expression via flow cytometry
Type: cell-based, human
Procedure: Antibodies against mouse F4/80, CD11b, and CD11c, and against human CD4, CD8, and CD14 were purchased from BD Pharmingen. CD206 antibody was purchased from Serotec. Semaphorin 7a antibody was obtained from R & D Systems. Appropriate isotype controls were obtained from BD Pharmingen. Flow cytometry and cell sorting were performed using a BD FACSCalibur. Data were analyzed using Flow Jo v 7.5 software (Tree Star, Inc, Ashland, Oreg.). For all analyses, isotype control staining was subtracted from true antibody staining to determine the percentage of positive cells. When necessary this percentage was then multiplied by the total cell count in the sample to derive absolute quantity of the cell population of interest.
Ficoll separation and processing of PBMCs for FACS was performed as we have previously described (Gan et al., 2011, Arthritis Rgeum. 63:2484-2494).
CD14+ monocytes were obtained via MACS-enrichment as have been previously described. These cells were stimulated with recombinant Sema 7a (Abnova, Taiwan) or human serum albumin (Sigma) as previously described (Gan et al., 2011, Arthritis Rgeum. 63:2484-2494). Lentivirally-mediated shRNA knockdown of Plexin C1 expression was performed using specific anti-Plexin shRNA or control “scramble” shRNA (Santa Cruz Biotech, Santa Cruz […].) as previously described (Gan et al., 2011, Arthritis Rgeum. 63:2484-2494).

B1: recombinant Sema 7a protein: recombinant Sema 7a (Abnova, Taiwan) used to stimulate CD14+ monocytes (protein, UniProt O75326 45-648, looked up)
Semaphorin-7A: QGHLRSGPRIFAVWKGHVGQDRVDFGQTEPHTVLFHEPGSSSVWVGGRGKVYLFDFPEGKNASVRTVNIGSTKGSCLDKRDCENYITLLERRSEGLLACGTNARHPSCWNLVNGTVVPLGEMRGYAPFSPDENSLVLFEGDEVYSTIRKQEYNGKIPRFRRIRGESELYTSDTVMQNPQFIKATIVHQDQAYDDKIYYFFREDNPDKNPEAPLNVSRVAQLCRGDQGGESSLSVSKWNTFLKAMLVCSDAATNKNFNRLQDVFLLPDPSGQWRDTRVYGVFSNPWNYSAVCVYSLGDIDKVFRTSSLKGYHSSLPNPRPGKCLPDQQPIPTETFQVADRHPEVAQRVEPMGPLKTPLFHSKYHYQKVAVHRMQASHGETFHVLYLTTDRGTIHKVVEPGEQEHSFAFNIMEIQPFRRAAAIQTMSLDAERRKLYVSSQWEVSQVPLDLCEVYGGGCHGCLMSRDPYCGWDQGRCISIYSSERSVLQSINPAEPHKECPNPKPDKAPLQKVSLAPNSRYYLSCPMESRHATYSWRHKENVEQSCEPGHQSPNCILFIENLTAQQYGHYFCEAQEGSYFREAQHWQLLPEDGIMAEHLLGHACALA
With B1 the “response to Sema 7a stimulation (cell surface expression of CD206)” value (IPF monocytes, p=0.16, FIGS. 6A and 6B) was “failed to respond” and the “increase in cell surface expression of CD206” value (normal human monocytes, p=0.04, FIGS. 6A and 6B) was 94.3%.

Source: patent US20140271639A1, “Semaphorin 7a Induced Lung Fibrogenesis Occurs in a CD-4-Dependent, Macrophage Dependent Manner” (YALE UNIVERSITY, priority 2011, published 2014)
